Results from patent US20070224212A1.

Legend:
D5 IgG = experiment: AlphaScreen competition: peptide titrated against the binding of D5-IgG to biotinylated-IQN17
[1] = target: HIV-1 gp41 (strain BaL) (HIV-1 strain BaL); experiment: cell-based or functional assay
[2] = target: HIV-1 gp41 (strain 89.6) (HIV-1 strain 89.6); experiment: cell-based or functional assay
[3] = target: HIV-1 gp41 (strain HXB2) (HIV-1 strain HXB2) (UniProt P04578); experiment: cell-based or functional assay
Biotin-IZN36 = experiment: BIAcore SPR; D5 IgG immobilized on CM5 chip, biotin-IZN36 in solution
(Biotin-CCIZN23)3 [4] = experiment: BIAcore SPR; D5 IgG immobilized on CM5 chip, (biotin-CCIZN23)3 in solution
[5] = target: HIV-1 gp41 (strain MN-1) (HIV-1 strain MN-1) (UniProt P05877); experiment: cell-based or functional assay
[6] = target: HIV-1 gp41 (strain NL4-3) (HIV-1 strain NL4-3); experiment: cell-based or functional assay
(Biotin-CCIZN23)3 [7] = experiment: BIAcore SPR; (biotin-CCIZN23)3 immobilized on SA chip, D5-scFv in solution

Substance: IZN17 L565M (peptide)
- IC50 (read off the curve) (D5 IgG): 0.01 µM

Substance: T-20 (peptide)
- IC50, single-cycle HIV infectivity assay [1]: 0.0024 µM
- IC50, single-cycle HIV infectivity assay [2]: 0.029 µM
- IC50, single-cycle HIV infectivity assay [3]: 0.0053 µM

Substance: D5 IgG (antibody)
- Kd (Biotin-IZN36): 0.00017 µM
- Kd ((Biotin-CCIZN23)3 [4]): 0.00022 µM
- IC50, single-cycle HIV infectivity assay [1]: 0.093 µM
- IC50, single-cycle HIV infectivity assay [2]: 1.75 µM
- IC50, single-cycle HIV infectivity assay [5]: 0.393 µM
- IC50, single-cycle HIV infectivity assay [6]: 0.226 µM
- IC50, HIV single cycle infectivity assay, HIV-HXB2 [3]: 1.35 µM
- IC50, HIV-1 single-cycle infectivity assay, strain HXB2 (FIG. 17A) [3]: 144 mg/L
- IC50, single-cycle HIV infectivity assay [3]: 0.31 µM

Substance: D5-scFv
- Kd ((Biotin-CCIZN23)3 [7]): 0.0002 µM

Substance: IZN17 Q567R (peptide)
- IC50 (read off the curve) (D5 IgG): 0.01 µM
